Source: the nanobody polyreactivity screen of Harvey et al. (2022)

Assay: yeast display, Sf9 membrane polyspecificity reagent, FACS + sequencing; frameworks hold sequencing errors
Method in brief: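 Using colony PCR, genes from sorted yeast display clones were amplified, then sequenced on MiSeq at 2 × 250 and filtered by CDR length. The clones had been stained with 10% biotinylated, detergent-solubilized Sf9 membrane reagent for 1 hour at 4 °C and sorted by FACS into low and high (top ~1%) gates on anti-HA and streptavidin fluorescence. Polyreactivity labels come from the gate of origin.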

Row | Sequence | polyreactivity (PSR sort gate)
1 | QVQLVESGGGLVQAGGSLRLSCAASGIIFRDNAMGWYRQAPGTERELVAAIDSSGGTTYADSVKGRFTISRDNAKNTVYLQMNSLKPEDTAVYYCATEVYSTVSYYGYDYYGRNYYYWGQGPQVTVSS | low polyreactivity
2 | QVQLVESGGGLVQAGGSLRLSCAASGIIFRDYGMGWYRQAPGKESEIVATITYSGGGTYYADSVKGRFTISRDNANNTVYLQMNSLKPEDTAVYYCAAYPFYYDLAYDYWGQGTQVTVSS | low polyreactivity
3 | QVQLVESGGGLVQAGGSLRLSCAASGIIFRGNAMGWYRQAHGKERELVAAISSAGSTNYADSVKGRFTISRDNAKNTVYLQMNSLKPEVTAVFYCAKGSIKYHVTLRGRGYYWGQGTQVTVSS | low polyreactivity
4 | QVQLVESGGGLVQAGGSLRLSCAASGIIFRGYAMGWYRQAPGKERELVASITRRGGSTRYADSVKGRFTISRDNAKNTVYLQMNSLKPEDTAVYYCAAVRVHTDRYNYWGQGTQVTVSS | high polyreactivity
5 | QVQLVESGGGLVQAGGSLRLSCAASGIIFRLNTMGWYRQAPGKEREFVAAITSGGSTHYADSVKGRFTISRDNAKNTVYLQMNSLKPEDTAVYYCAAGHRANYWAWHFYYPGDYWGQGTQVTVSS | low polyreactivity
6 | QVQLVESGGGLVQAGGSLRLSCAASGIIFRRYAMGWYRQAPGKERELVAAISSRGGSTYYADSVKRRFTISRDNAKNTVYLQMNSLKPEDTAVYYCAKGFSGTGGSGDFGYWGQGTQVTVSS | high polyreactivity
7 | QVQLVESGGGLVQAGGSLRLSCAASGIIFRRYAMGWYRQAPGKERELVAVITSGGSTNYADSVKGRFTISRDNAKNTVYLQMNSLKPEDTAVYYCAAKGWVYWIRSRYDYWGQGTQVTVSS | high polyreactivity
8 | QVQLVESGGGLVQAGGSLRLSCAASGIIFRSYAMGWYRQAPGKERELVAAITRSGGSTYADSVKGRFTISRDNAKNTVYLQMTSLKPEDTAVYYCAADRYSGWVYRRDYWGQGTQVTVSS | low polyreactivity
9 | QVQLVESGGGLVQAGGSLRLSCAASGIIFRVYAMGWYRQAPGKERELVATITWSGGSTFYADSVKGRFTISRDNAKNPVDLQRNSLTPEDTAVYYCAARGYLRREQLYVLIRYDYWGQGTQVTVSS | low polyreactivity
10 | QVQLVESGGGLVQAGGSLRLSCAASGIIFRWYAMGWYRQAPGKERELVAGITSTTGTTYYADSVKGRFTISRDNAKNTVYLQMNSLKPEDSAVYYCAADYYWYTTAGVVDSFEYWGQGTQVTVSS | low polyreactivity
11 | QVQLVESGGGLVQAGGSLRLSCAASGIIFRWYGMGWYRQAPGKERELVATITSGGRTNYADSVKGRFTISRDNAKNTVYLQMNSLKPEDTAVYYCAAEKWTVRRFNPYTYYRYDYWGQGTQVTVSS | low polyreactivity
12 | QVQLVESGGGLVQAGGSLRLSCAASGIIFRWYTMGWYRQAPGKERELVAAISTSTGSTYYADSVKGRFTISRDNAKNTVYLQMNSLKPEDTAVYYCNARQFSGLGYWGQGTQVTVSS | high polyreactivity
13 | QVQLVESGGGLVQAGGSLRLSCAASGIIFRYNAMGWYRQAPGKARELVAALSFRGGSTRYADSVKGRCTISRDTATNTVYLQMNSLKPEDTAVYYCNAQRRTYIYDYWGQGTQVTVSS | high polyreactivity
14 | QVQLVESGGGLVQAGGSLRLSCAASGIIFRYNAMGWYRQAPGKERELVAAISRSSGSTYYADSVKGRFTISRDNAKNTVYLQMNSLKPEDTAVYYCAAYPRYRVEYWGQGTQVTVSS | high polyreactivity
15 | QVQLVESGGGLVQAGGSLRLSCAASGIIFRYNAMGWYRQAPGKERELVAAISTGGSTNYADSVKGRFTISRDNAKNTVYLQMNSLKPEDTAVYYCAADWHRAYGAYDYWGQGTQVTVSS | low polyreactivity
16 | QVQLVESGGGLVQAGGSLRLSCAASGIIFRYYDMGWYRQAPGKERELVARITSRGGTYYADSVKGRFTISRDNATNTVYLKMNSLKPEDTAVYYCAASYLLTHGYAYNYWGQGTQVTVSS | high polyreactivity
17 | QVQLVESGGGLVQAGGSLRLSCAASGIIFSDYAMGWYRQAPGKERELVAAITGGGSTYYADSVKGRFTISRDNAKNTVYLQMNRLKPEDTAVYYCNADWARLLIRSTEFDYWGQGTQVTVSS | low polyreactivity
18 | QVQLVESGGGLVQAGGSLRLSCAASGIIFSEYAMGWSRQAPGKERELVAAITKSGGSTYYADSVKGRFTISRDNAKNTVYLQMNSLKPEDTAVYYCAKKTPYIRGKDNYWGQGTQVNVSS | low polyreactivity
19 | QVQLVESGGGLVQAGGSLRLSCAASGIIFSFYAMGWYRQAPGKERELVAAISRSGGSTYYADSVKGRFTISRDNEKNSVYLQMNSLKPEDTAVYYCNADNGASYYYRRYDSLGQGTQVTVSS | high polyreactivity
20 | QVQLVESGGGLVQAGGSLRLSCAASGIIFSHYAMGWYRQAPGKERELVAAISSRGGSTYYADSVKGRFTISRDNAKNTVYLQMNSLKPEDTAVYYCNAKWTSHGTYAEDYWGQGTQVTVSS | high polyreactivity
21 | QVQLVESGGGLVQAGGSLRLSCAASGIIFSINAMGWDRQAPGKERELVAAISRSGGSTNYADSVKGRFTISRDNAKNTVYLQMNSLKPEDTAVYYCATVHRYSVWSHNYWGQGTQVTVAS | high polyreactivity
22 | QVQLVESGGGLVQAGGSLRLSCAASGIIFSIYAMGWYRQAPGKERELVAVISRSSGSTYYADSVKGRFTISRDNAKNTVYLQMNSLKPEDTAVYYCAADRYSYGSNGYPRFEYYYWGQGTQVTVSS | high polyreactivity

Row | Sequence | polyreactivity (PSR sort gate)
23 | QVQLVESGGGLVQAGGSLRLSCAASGIIFSIYTMGRYRQAPGKERELVAAINRSGSRTYYADSVKGRFTISRDNAKNTVYLQMNSLKPEDTAVYYCAAGTGSRDYYWGQGTQVTVSS | high polyreactivity
24 | QVQLVESGGGLVQAGGSLRLSCAASGIIFSLNTMGWYRQAPGKERELVAAISSSGGSTYYADSVKGRFTISRDNAKNTVYLQMTSLKPEDTAVYYCARRYAPNTSLTFYYWGQGTQVTVSS | low polyreactivity
25 | QVQLVESGGGLVQAGGSLRLSCAASGIIFSPYAMGRYRQAPGKERELVAAITYSGDTTYYADSVKGRFTISRDNAKNTVYLQMNSLKPEDTAVYYCAVEDAGQGGDYWGQGTQVTVSS | low polyreactivity
26 | QVQLVESGGGLVQAGGSLRLSCAASGIIFSPYAMGWYRQAPVKERELVAAISYSGGSTYYADSVKGRFTISRDNAKNTVYLQMNSLKPEDTAVYYCAVVYSYYLAVLGYWDYDYWGQGTQVTVSS | low polyreactivity
27 | QVQLVESGGGLVQAGGSLRLSCAASGIIFSRYVMGWSRQAPGKERELVAAISGSGGSTYYADSVKGRFTISRDNAKNTVYLQMNSLKPEDTAVYYCAKRRSWSNRIYGYWGQGTQVTVSS | high polyreactivity
28 | QVQLVESGGGLVQAGGSLRLSCAASGIIFSSNAMGWYRQAPGKERELVAAISRRGGSTYYADSVKGRFTISRDNAKNTVYLQMNSLKPEDTAVYYCNALLYNGAGYDYWGQGTQVTVSS | high polyreactivity
29 | QVQLVESGGGLVQAGGSLRLSCAASGIIFSSYAMGWYRQAPGKERELVAAISLSGGSTYYADSVKGRFTISRDNAKNTVYLQMNSLKPEDTAVFYCNTVRQRARFTKVDYWGQGTQVTVSS | high polyreactivity
30 | QVQLVESGGGLVQAGGSLRLSCAASGIIFSSYGMGWYRQAPGKERELVAAIRWSTGNTYYADSVKGRFTISRDNAKNTVYLQMNSLKPEDTAVYYCAKRSSWGYHFYYWGQGTQVTVSS | high polyreactivity
31 | QVQLVESGGGLVQAGGSLRLSCAASGIIFSWYDMGWYRKAPGKERELVAAISSGDRTNYADSVKGRFTISRDNAKNTVYLQMNSLKPEDTAVYYCAADLFPIAGEYDYWGQGTQVTVSS | high polyreactivity
32 | QVQLVESGGGLVQAGGSLRLSCAASGIIFSYNAMGWYRQAPGKERELVAAITRRGTRTYYADSVKGRFTISRDNAKNTVYLQMNSLKPEDSAVYYCAADYVRPGTKYDYWGQGTQVTVSS | high polyreactivity
33 | QVQLVESGGGLVQAGGSLRLSCAASGIIFSYNAMGWYRQAPGKERELVAAITRTGSTNYADSVKGRFTISRDNAKNTVYLQMNSLKPEDTAVYYCAAGWGYGRYRHVGYRMDYWGQGTQVTVSS | high polyreactivity
34 | QVQLVESGGGLVQAGGSLRLSCAASGIIFTDNALGWYRQAPGKERELVATISWSTDNTYYADSVKGRFTISRDNAKNTVYLQMNSLKPEDTAVYYCAAEEYYAYWYQYDYWGQGTQVTVSS | low polyreactivity
35 | QVQLVESGGGLVQAGGSLRLSCAASGIIFTGYTMGWYRQAPGKERELVAAITWRGGSTYYADSVKGRFTISRDNAKNTVYLQMNSLKPEDTAVYYCAAEGWYSWDDDYWGQGTQVTVSS | low polyreactivity
36 | QVQLVESGGGLVQAGGSLRLSCAASGIIFTKYAMGWYRQAPGKERELVAAITASGGSTYYADSVKGRFTISRDNAKNTVYLQMNSLKPEDTAVYYCAARSQSRYGYWGQGTQVTVSS | high polyreactivity
37 | QVQLVESGGGLVQAGGSLRLSCAASGIIFTKYVMGWYRQAPGKERELVAAINTDGGSTRYADSVKGRFTISRDNAKNTVYLQKNSLKPEDTAVYYCAAVSSRRPGYEYYYWGQGTQVTVSS | high polyreactivity
38 | QVQLVESGGGLVQAGGSLRLSCAASGIIFTSNTMGWYRQAPGKEREFVASINWNGSSTYADSVKGRFTISRDNAKNTVYLQMNSLKPEDTAVYYCAAEASPRLYRKYDYWGQGTQVTVSS | low polyreactivity
39 | QVQLVESGGGLVQAGGSLRLSCAASGIIFTYNAMGWSRQAPGKERELVAAINSSGGSTNYADSVKGRFTISRDNAKNTVYLQMNSLKPEDTAVYYCAARDATYYGVWRYYGIDDYWGQGTQVTVSS | low polyreactivity
40 | QVQLVESGGGLVQAGGSLRLSCAASGIIFTYYAMGWYRQAPGKERELVAAISVSGSSTYYADSVKGRFTISRDNAKNTVYLQMNSLKPEDTAVYYCAARYQWGTRGFGYWGQGTQVTVSS | high polyreactivity
41 | QVQLVESGGGLVQAGGSLRLSCAASGIIFVENAMGWYRQAPGKERDLVASGDSTYADSVKGRFTIARDNAKNTVYLQMNSLKPEDNAVYYCNTDGYPRLYIYDYWGQGTQVTVSS | low polyreactivity
42 | QVQLVESGGGLVQAGGSLRLSCAASGIIFVENAMGWYRQAPGKERELVAAISWDGGSTYYADSVKGRFTISRDNAKNTVYLQMNSLKPEDTAVYYCAADLTISYSQEYYYWGQGTQVTVSS | low polyreactivity
43 | QVQLVESGGGLVQAGGSLRLSCAASGIIFVQYAMGWYRQAPGKERELVAGITRRGGSTYYADSVKGRFTISRDNAKNTVYLQMNSLKTEDTAVFYCAATRPGDVLYRNEYWGQGTQVTVSS | high polyreactivity
